The supplement of paper PMC5998384

Key:
[1] = test system: HeLa Kyoto; test: melting temperature (median over replicates), in situ; higher = more thermally stable
[2] = test system: HeLa Kyoto; test: solubility change mitosis vs G1/S (difference of NP-40 vs SDS log2 ratios) (log2 ratio difference); higher = more soluble in mitosis
[3] = test system: HeLa Kyoto; test: thermal stability score vs G1/S (z-score of summed log2 fold changes over temperatures); higher = more thermally stable than in G1/S
[4] = test system: HeLa Kyoto; test: solubility in G1/S (NP-40 vs SDS abundance) (log2 ratio); higher = more soluble; settings: cell cycle stage: G1/S
[5] = cell cycle stage: early G1 (4.5 h after nocodazole release)
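Wherever melting temperature (median over replicates), in situ is given: HeLa Kyoto cells synchronized by double thymidine or nocodazole block, proteins quantified by TMT10plex mass spectrometry, three independent biological replicates.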
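Wherever solubility change mitosis vs G1/S (difference of NP-40 vs SDS log2 ratios) is given: synchronized HeLa Kyoto cells (double thymidine block for G1/S, nocodazole release for mitosis), protein amounts in NP-40 versus SDS lysates quantified by mass spectrometry, three biological replicates.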
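Wherever solubility in G1/S (NP-40 vs SDS abundance) is given: HeLa Kyoto cells arrested at G1/S by double thymidine block, proteins quantified by TMT10plex mass spectrometry in mild NP-40 versus SDS extracts, three biological replicates.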
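Wherever thermal stability score vs G1/S (z-score of summed log2 fold changes over temperatures) is given: synchronized HeLa Kyoto cells, proteins quantified by TMT10plex mass spectrometry, three biological replicates, mitosis taken 0.5 h after nocodazole release, G1/S directly after double thymidine block.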

## MEDGKPVWAPHPTDGFQMGNIVDIGPDSLTIEPLNQKGKTFLALINQVFPAEEDSKKDVEDNCSLMYLNEATLLHNIKVRYSKDRIYTYVANILIAVNPYFDIPKIYSSEAIKSYQGKSLGTRPPHVFAIADKAFRDMKVLKMSQSIIVSGESGAGKTENTKFVLRYLTESYGTGQDIDDRIVEANPLLEAFGNAKTVRNNNSSRFGKFVEIHFNEKSSVVGGFVSHYLLEKSRICVQGKEERNYHIFYRLCAGASEDIREKLHLSSPDNFRYLNRGCTRYFANKETDKQILQNRKSPEYLKAGSMKDPLLDDHGDFIRMCTAMKKIGLDDEEKLDLFRVVAGVLHLGNIDFEEAGSTSGGCNLKNKSAQSLEYCAELLGLDQDDLRVSLTTRVMLTTAGGTKGTVIKVPLKVEQANNARDALAKTVYSHLFDHVVNRVNQCFPFETSSYFIGVLDIAGFEYFEHNSFEQFCINYCNEKLQQFFNERILKEEQELYQKEGLGVNEVHYVDNQDCIDLIEAKLVGILDILDEENRLPQPSDQHFTSAVHQKHKDHFRLTIPRKSKLAVHRNIRDDEGFIIRHFAGAVCYETTQFVEKNNDALHMSLESLICESRDKFIRELFESSTNNNKDTKQKAGKLSFISVGNKFKTQLNLLLDKLRSTGASFIRCIKPNLKMTSHHFEGAQILSQLQCSGMVSVLDLMQGGYPSRASFHELYNMYKKYMPDKLARLDPRLFCKALFKALGLNENDYKFGLTKVFFRPGKFAEFDQIMKSDPDHLAELVKRVNHWLTCSRWKKVQWCSLSVIKLKNKIKYRAEACIKMQKTIRMWLCKRRHKPRIDGLVKVGTLKKRLDKFNEVVSVLKDGKPEMNKQIKNLEISIDTLMAKIKSTMMTQEQIQKEYDALVKSSEELLSALQKKKQQEEEAERLRRIQEEMEKERKRREEDEKRRRKEEEERRMKLEMEAKRKQEEEERKKREDDEKRIQAEVEAQLARQKEEESQQQAVLEQERRDRELALRIAQSEAELISDEAQADLALRRSLDSYPVSKNDGTRPKMTPEQMAKEMSEFLSRGPAVLATKAAAGTKKYDLSKWKYAELRDTINTSCDIELLAACREEFHRRLKVYHAWKSKNKKRNTETEQRAPKSVTDYDFAPFLNNSPQQNPAAQIPARQREIEMNRQQRFFRIPFIRPADQYKDPQSKKKGWWYAHFDGPWIARQMELHPDKPPILLVAGKDDMEMCELNLEETGLTRKRGAEILPRQFEEIWERCGGIQYLQNAIESRQARPTYATAMLQSLLK [MYO6]
[1]; cell cycle stage: G1/S
  melting temperature: 52.1 °C
[1]; cell cycle stage: mitosis
  melting temperature: 51.5 °C
[2]
  solubility change mitosis (log2): -0.164
[3]; [5]
  thermal stability score: -0.962
[3]; cell cycle stage: mitosis
  thermal stability score: -1.32
[4]
  solubility in G1/S (log2): -0.238

## MAGYKPVAIQTYPILGEKITQDTLYWNNYKTPVQIKEFGAVSKVDFSPQPPYNYAVTASSRIHIYGRYSQEPIKTFSRFKDTAYCATFRQDGRLLVAGSEDGGVQLFDISGRAPLRQFEGHTKAVHTVDFTADKYHVVSGADDYTVKLWDIPNSKEILTFKEHSDYVRCGCASKLNPDLFITGSYDHTVKMFDARTSESVLSVEHGQPVESVLLFPSGGLLVSAGGRYVKVWDMLKGGQLLVSLKNHHKTVTCLCLSSSGQRLLSGSLDRKVKVYSTTSYKVVHSFDYAASILSLALAHEDETIVVGMTNGILSVKHRKSEAKKESLPRRRRPAYRTFIKGKNYMKQRDDILINRPAKKHLELYDRDLKHFRISKALDRVLDPTCTIKTPEITVSIIKELNRRGVLANALAGRDEKEISHVLNFLIRNLSQPRFAPVLINAAEIIIDIYLPVIGQSPVVDKKFLLLQGLVEKEIDYQRELLETLGMMDMLFATMRRKEGTSVLEHTSDGFPENKKIES [UTP15]
[1]; cell cycle stage: G1/S
  melting temperature: 52.6 °C
[1]; cell cycle stage: mitosis
  melting temperature: 50.9 °C
[2]
  solubility change mitosis (log2): 0.558
[3]; [5]
  thermal stability score: -0.279
[3]; cell cycle stage: mitosis
  thermal stability score: -3.5
[4]
  solubility in G1/S (log2): -1.23

## GOLGA3
[1]; cell cycle stage: G1/S
  melting temperature: 51.8 °C
[1]; cell cycle stage: mitosis
  melting temperature: 50.4 °C
[2]
  solubility change mitosis (log2): -0.048
[3]; [5]
  thermal stability score: 0.197
[3]; cell cycle stage: mitosis
  thermal stability score: -1.4
[4]
  solubility in G1/S (log2): 0.313

## ZC3H13
[1]; cell cycle stage: G1/S
  melting temperature: 49.5 °C
[1]; cell cycle stage: mitosis
  melting temperature: 50.7 °C
[2]
  solubility change mitosis (log2): 0.414
[3]; [5]
  thermal stability score: 0.124
[3]; cell cycle stage: mitosis
  thermal stability score: 2.39
[4]
  solubility in G1/S (log2): -0.595

## MTLESMMACCLSDEVKESKRINAEIEKQLRRDKRDARRELKLLLLGTGESGKSTFIKQMRIIHGAGYSEEDKRGFTKLVYQNIFTAMQAMIRAMETLKILYKYEQNKANALLIREVDVEKVTTFEHQYVSAIKTLWEDPGIQECYDRRREYQLSDSAKYYLTDVDRIATLGYLPTQQDVLRVRVPTTGIIEYPFDLENIIFRMVDVGGQRSERRKWIHCFENVTSIMFLVALSEYDQVLVESDNENRMEESKALFRTIITYPWFQNSSVILFLNKKDLLEDKILYSHLVDYFPEFDGPQRDAQAAREFILKMFVDLNPDSDKIIYSHFTCATDTENIRFVFAAVKDTILQLNLKEYNLV [GNA11]
[1]; cell cycle stage: G1/S
  melting temperature: 51.1 °C
[1]; cell cycle stage: mitosis
  melting temperature: 50.6 °C
[2]
  solubility change mitosis (log2): -0.121
[3]; [5]
  thermal stability score: 0.848
[3]; cell cycle stage: mitosis
  thermal stability score: 0.911
[4]
  solubility in G1/S (log2): -0.276
